Assay results from US20230408517A1 (BIO TECHNE, published 2023).
Read-outs that look alike come from different tables or passages of the source.

B1: 1035709 (antibody, V domains shown)
VH: EVQLQQSGPELVKPGASVKISCKTSGYTFTEYTMHWVKQSHGKSLEWIGGINPNIVDTGYNQKFKGKATLTVDKSSSTAYMELRSLTSEDSAVYYCARDGYPLYYAMDYWGQGTSVTVSS
VL: DIQMTQSPSSLSASLGERVSLTCRASQEISGYLSWLQQKPDGTIKRLIYAASTLDSGVPKRFSGSRSGSDYSLTISSLESEDFADYYCLQYASYPWTFGGGTKLEIK
B2: 1035762 (antibody, V domains shown)
VH: EVQLQQSGPELVKPGASVKISCKTSGYTFTEYTMHWVKQSHGKSLEWIGGINPNNGDTGYNQKFKGKATLTVDKSSSTAYMELRSLTFEDSAVYYCARDGYPLYYAMDYWGQGTSVTVSS
VL: DIQMTQSPSSLSASLGERVSLTCRASQEISGYLCWLQQKPDGTIKRLIYAASTLDSAVPKRFSGSRSGSDYSLTISSLESEDFADFYCLQYASYPWTFGGGTKLEIK

Key:
[1] = target: rSARS2-B.1.1.7 S aa16-1211 4x aa mut., C-His (SARS-CoV-2, UniProt P0DTC2 16-1211); assay: flow cytometry, blocking of binding to hACE-2 cells
[2] = target: rSARS2-B.1.617.2 S aa16-1211 10+4x aa mut., C-His (SARS-CoV-2, UniProt P0DTC2 16-1211); assay: as above
[3] = target: T1, IN v2 variant RBD (R319-F541 with L452R, T478K) (SARS-CoV-2, UniProt P0DTC2 319-541); assay: as above
[4] = target: T2, BR P.1 variant RBD (R319-F541 with K417T, E484K, N501Y), C-terminal 6-His (SARS-CoV-2, UniProt P0DTC2 319-541); assay: as above
[5] = target: rSARS2-B.1.1.7 S aa16-1211 2x aa mut., C-His (SARS-CoV-2, UniProt P0DTC2 16-1211); assay: as above
[6] = target: rSARS2 RBD aa319-541, N439K, C-His (SARS-CoV-2, UniProt P0DTC2 319-541); assay: as above
[7] = target: T2, BR P.1 variant RBD (R319-F541 with …); assay: lateral flow NC50, RBD-AuNP vs immobilised ACE2
[8] = target: T3, SA variant RBD (R319-F541 with K417N, E484K, N501Y), C-terminal 6-His (SARS-CoV-2, UniProt P0DTC2 319-541); assay: lateral flow NC50, RBD-AuNP vs immobilised ACE2
[9] = target: T4, UK variant RBD (R319-F541 with N501Y), C-terminal 6-His (SARS-CoV-2, UniProt P0DTC2 319-541); assay: lateral flow NC50, RBD-AuNP vs immobilised ACE2
[10] = target: T5, recombinant SARS-CoV-2 spike S1 RBD (R319-F541), C-terminal 6-His (SARS-CoV-2, UniProt P0DTC2 319-541); assay: lateral flow NC50, RBD-AuNP vs immobilised ACE2
[11] = target: T5, recombinant SARS-CoV-2 spike S1 RBD …; assay: flow cytometry, blocking of binding to hACE-2 cells
[12] = target: K417E RBD (R319-F541 with K417E) (SARS-CoV-2, UniProt P0DTC2 319-541); assay: lateral flow NC50, RBD-AuNP vs immobilised ACE2
[13] = target: T1, IN v2 variant RBD (R319-F541 with …); assay: lateral flow NC50, RBD-AuNP vs immobilised ACE2
[14] = target: T2, BR P.1 variant RBD (R319-F541 with …); assay: lateral flow NC50, RBD-AuNP vs immobilised ACE2; remark: listed apart in the source
[15] = target: IN v1 variant RBD (R319-F541 with L452R, E484Q) (SARS-CoV-2, UniProt P0DTC2 319-541); assay: lateral flow NC50, RBD-AuNP vs immobilised ACE2
[16] = target: BR P.2 variant RBD (R319-F541 with E484K) (SARS-CoV-2, UniProt P0DTC2 319-541); assay: lateral flow NC50, RBD-AuNP vs immobilised ACE2
[17] = target: T3, SA variant RBD (R319-F541 with K417N, …); assay: lateral flow NC50, RBD-AuNP vs immobilised ACE2; remark: listed apart in the source
[18] = target: L452R RBD (R319-F541 with L452R) (SARS-CoV-2, UniProt P0DTC2 319-541); assay: lateral flow NC50, RBD-AuNP vs immobilised ACE2
[19] = target: T4, UK variant RBD (R319-F541 with N501Y), …; assay: lateral flow NC50, RBD-AuNP vs immobilised ACE2; remark: listed apart in the source
[20] = target: T478K RBD (R319-F541 with T478K) (SARS-CoV-2, UniProt P0DTC2 319-541); assay: lateral flow NC50, RBD-AuNP vs immobilised ACE2
[21] = target: T5, recombinant SARS-CoV-2 spike S1 RBD …; assay: lateral flow NC50, RBD-AuNP vs immobilised ACE2; remark: listed apart in the source
[22] = target: T2, BR P.1 variant RBD (R319-F541 with …); assay: sandwich dipstick, detector Ab5-AuNP
[23] = target: T3, SA variant RBD (R319-F541 with K417N, …); assay: sandwich dipstick, detector Ab5-AuNP
[24] = target: T4, UK variant RBD (R319-F541 with N501Y), …; assay: sandwich dipstick, detector Ab5-AuNP
[25] = target: T5, recombinant SARS-CoV-2 spike S1 RBD …; assay: sandwich dipstick, detector Ab5-AuNP
[26] = target: T5, recombinant SARS-CoV-2 spike S1 RBD …; assay: flow cytometry, blocking of binding to hACE-2 cells; remark: listed apart in the source

Binder | percent blocking [1] | percent blocking [2] | percent blocking [3] | percent blocking [4] | percent blocking [5] | percent blocking [6] | IC50 [7] | IC50 [8] | IC50 [9] | IC50 [10] | percent blocking [11] | IC50 [12] | IC50 [13] | IC50 [14] | IC50 [15] | IC50 [16] | IC50 [17] | IC50 [18] | IC50 [19] | IC50 [20] | also measured
B1 | 80.7% | 58.8% | 5.3% | 90% | 92.1% | 90.8% | 0.7 µg/mL | 0.91 µg/mL | 1.08 µg/mL | 0.63 µg/mL | 94.7% | 0.38 µg/mL | 2.33 µg/mL | 0.7 µg/mL | 0.66 µg/mL | 0.61 µg/mL | 0.91 µg/mL | 0.92 µg/mL | 1.08 µg/mL | 1.35 µg/mL | IC50 [21]: 0.63 µg/mL; detection sensitivity [22]: 0.001 µg/mL; detection sensitivity [23]: 0.001 µg/mL; detection sensitivity [24]: 0.001 µg/mL; detection sensitivity [25]: 0.001 µg/mL; percent blocking [26]: 94.7%
B2 | 75.2% | 18.7% | 1.5% | 40.5% | 75.7% | 42.7% | 0.69 µg/mL | 0.7 µg/mL | 0.95 µg/mL | 0.69 µg/mL | 94.1% | 0.49 µg/mL | 2.57 µg/mL | 0.69 µg/mL | 0.77 µg/mL | 0.85 µg/mL | 0.7 µg/mL | 0.73 µg/mL | 0.95 µg/mL | 3.77 µg/mL | IC50 [21]: 0.69 µg/mL; detection sensitivity [22]: 0.001 µg/mL; detection sensitivity [23]: 0.001 µg/mL; detection sensitivity [24]: 0.001 µg/mL; detection sensitivity [25]: 0.001 µg/mL; percent blocking [26]: 94.1%
